Experiment [1] concerns the target fibrillin microfibrils purified from bovine ciliary zonules (bovine (endogenous in ciliary zonule)). Nature of the experiment: cryo-EM structure; native bovine ciliary zonule microfibrils in 20 mM Tris-HCl, 150 mM NaCl, 2 mM CaCl2 pH 7.4; single-particle reconstruction of bead (9.7 Å) and arm (18.3 Å) regions, C2 symmetry imposed.
For experiment [2] the target is unchanged. Nature of the experiment: STEM mass mapping; full-length LTBP-1 incubated with bovine microfibrils at a 2:1 molar ratio for 4 h at 4 °C; mass per microfibril repeat with and without LTBP-1.

We go through two substances from PMC10191836.

On to “fibrillin microfibrils purified from bovine ciliary zonules (complex)”, for which the fibrillin monomers per microfibril repeat (monomers per repeat) in experiment [1] was determined as 8.
Regarding “full-length human LTBP-1S (short splice form of latent TGFβ-binding protein-1) (natural protein)”, the stoichiometry N (LTBP-1 molecules per microfibril repeat) in experiment [2] was determined as 2.
